PMC3166298, “Phosphorylation Alters the Interaction of the Arabidopsis Phosphotransfer Protein AHP1 with Its Sensor Kinase ETR1” (PLoS ONE, 2011)
Residue numbers refer to the chain shown, from its start. In names and notes the source's numbering stands.

T1: dansylated AHP1 (Arabidopsis), Q9ZNV9
T1 chain: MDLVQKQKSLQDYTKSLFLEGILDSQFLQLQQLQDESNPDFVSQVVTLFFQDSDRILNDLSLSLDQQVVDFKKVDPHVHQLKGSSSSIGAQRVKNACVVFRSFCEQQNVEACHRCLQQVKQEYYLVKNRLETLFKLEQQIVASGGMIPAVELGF

T2: AHP1-GFP(S65T), wild type Arabidopsis histidine-containing phosphotransfer protein 1 fused to green fluorescent protein (Arabidopsis), Q9ZNV9
T2 chain: T1 chain

T3: ETR1-D659A (Arabidopsis, UniProt P49333 1-738, D659A)
T3 construct: Represents the non-phosphorylated state of the receiver domain
T3 sequence (looked up): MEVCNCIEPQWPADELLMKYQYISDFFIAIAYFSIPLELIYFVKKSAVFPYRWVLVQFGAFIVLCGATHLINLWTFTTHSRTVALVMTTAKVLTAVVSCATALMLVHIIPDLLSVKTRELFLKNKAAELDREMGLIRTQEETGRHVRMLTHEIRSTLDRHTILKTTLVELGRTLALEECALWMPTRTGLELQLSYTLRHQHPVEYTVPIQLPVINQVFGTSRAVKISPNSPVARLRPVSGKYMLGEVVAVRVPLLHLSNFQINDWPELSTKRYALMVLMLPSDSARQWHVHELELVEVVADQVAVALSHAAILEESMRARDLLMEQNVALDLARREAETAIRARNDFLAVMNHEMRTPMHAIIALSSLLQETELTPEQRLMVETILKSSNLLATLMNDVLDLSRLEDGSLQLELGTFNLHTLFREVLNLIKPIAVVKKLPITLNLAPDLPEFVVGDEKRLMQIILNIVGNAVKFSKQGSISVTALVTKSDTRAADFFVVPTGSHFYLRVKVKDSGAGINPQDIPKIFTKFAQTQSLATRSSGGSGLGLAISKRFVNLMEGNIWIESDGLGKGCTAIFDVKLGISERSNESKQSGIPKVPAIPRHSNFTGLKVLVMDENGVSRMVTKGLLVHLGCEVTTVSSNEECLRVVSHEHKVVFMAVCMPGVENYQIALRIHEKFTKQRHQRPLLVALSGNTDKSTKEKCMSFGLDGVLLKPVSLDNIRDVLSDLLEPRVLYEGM

T4: ETR1-D659E (Arabidopsis, UniProt P49333 1-738, D659E)
T4 construct: Phosphomimetic of the receiver domain aspartate; also called ETR1 mutant mimicking permanent phosphorylation
T4 sequence (looked up): T3 sequence (looked up) with A659E

B1: dansylated AHP1, Q9ZNV9 1-154 (natural protein)
chain: T1 chain
modifications: here or on the partner: dansyl label (dansyl chloride; typical ratio of protein-dansyl labeling 1:4), positions not given; dansyl label (dansyl chloride; typical ratio of protein-dansyl labeling 1:4), positions not given
B2: dansylated AHP1 (natural protein, Arabidopsis, UniProt Q9ZNV9 1-154, looked up)
chain: T1 chain
modifications: dansyl label (dansyl chloride; typical ratio of protein-dansyl labeling 1:4), positions not given
notes: Theoretical molecular weight printed as 18.3 kDa; also called AHP1 (dansylated, without GFP); source: recombinant, purified from the bacterial host, then dansylated
B3: AHP1-GFP(S65T), wild type Arabidopsis histidine-containing phosphotransfer protein 1 fused to green fluorescent protein, Q9ZNV9 1-154 (natural protein)
chain: T1 chain
B4: AHP1(H79E)-GFP(S65T) (natural protein, Arabidopsis, UniProt Q9ZNV9 1-154, looked up)
chain: T1 chain with H79E
notes: AHP1, Arabidopsis histidine-containing phosphotransfer protein 1; also called AHP1 mutant mimicking permanent phosphorylation
B5: AHP1(H79A)-GFP(S65T) (natural protein, Arabidopsis, UniProt Q9ZNV9 1-154, looked up)
chain: T1 chain with H79A
notes: AHP1, Arabidopsis histidine-containing phosphotransfer protein 1
B6: dansylated ETR1 (receptor, Arabidopsis, UniProt P49333 1-738, looked up)
chain: T3 sequence (looked up) with A659D
modifications: dansyl label (dansyl chloride; typical ratio of protein-dansyl labeling 1:4), positions not given
notes: In a dodecylmaltoside micelle; theoretical molecular weight printed as 84.9 kDa; also called ETR1 (dansylated); source: recombinant, purified from the bacterial host, then dansylated
B7: ethylene receptor ethylene response 1 (ETR1), wild type (receptor, Arabidopsis, UniProt P49333 1-738, looked up)
chain: T3 sequence (looked up) with A659D
notes: Solubilised in beta-D-dodecylmaltoside; also called sensor kinase ETR1; AtETR1

Key:
CheW = CheW (UniProt P0A964); conditions: cited from earlier work
[1] = target: T1, dansylated AHP1 (Arabidopsis), Q9ZNV9; experiment: fluorescence polarisation; Perrin plot of 2 uM ETR1 together with 0.2 uM dansylated AHP1; 0.2 M potassium phosphate pH 8.0, 0.05% beta-D-dodecylmaltoside, 10 mM beta-cyclodextrin; 5-25 C; apparent molecular weight; conditions: remark: other sources report otherwise
[2] = target: T1, dansylated AHP1 (Arabidopsis), Q9ZNV9; experiment: fluorescence polarisation; Perrin plot of a single dansylated protein at 0.2 uM; 0.2 M potassium phosphate pH 8.0, 0.05% beta-D-dodecylmaltoside, 10 mM beta-cyclodextrin; 5-25 C; apparent molecular weight; conditions: remark: other sources report otherwise
[3] = target: B7; experiment: fluorescence polarisation; Perrin plot of 2 uM ETR1 together with 0.2 uM dansylated AHP1; 0.2 M potassium phosphate pH 8.0, 0.05% beta-D-dodecylmaltoside, 10 mM beta-cyclodextrin; 5-25 C; apparent molecular weight; conditions: both partners purified
[4] = target: T2, AHP1-GFP(S65T), wild type Arabidopsis …; experiment: fluorescence polarisation; Perrin plot (anisotropy against temperature/viscosity) of 20 nM AHP1-GFP; 50 mM Tris-HCl pH 7.5, 100 mM KCl, 0.1% beta-D-dodecylmaltoside, 0.002% PMSF; 10-30 C, 0-20% glycerol; apparent molecular weight; conditions: remark: other sources report otherwise
ETR1-D659A = target: T3, ETR1-D659A; experiment: fluorescence polarisation; ETR1 mutant (0.04-20 uM) titrated to 8 nM AHP1 mutant-GFP(S65T); 50 mM Tris-HCl pH 7.5, 100 mM KCl, 0.1% beta-D-dodecylmaltoside, 0.002% PMSF; fit to a single binding site; conditions: both partners purified
ETR1-D659E = target: T4, ETR1-D659E; experiment: as above; conditions: both partners purified
[5] = target: the molecule itself; experiment: fluorescence polarisation; Perrin plot of a single dansylated protein at 0.2 uM; 0.2 M potassium phosphate pH 8.0, 0.05% beta-D-dodecylmaltoside, 10 mM beta-cyclodextrin; 5-25 C; apparent molecular weight
[6] = target: the molecule itself; experiment: fluorescence polarisation; Perrin plot of 2 uM ETR1 together with 0.2 uM dansylated AHP1; 0.2 M potassium phosphate pH 8.0, 0.05% beta-D-dodecylmaltoside, 10 mM beta-cyclodextrin; 5-25 C; apparent molecular weight

Chain of CheW (P0A964 whole entry): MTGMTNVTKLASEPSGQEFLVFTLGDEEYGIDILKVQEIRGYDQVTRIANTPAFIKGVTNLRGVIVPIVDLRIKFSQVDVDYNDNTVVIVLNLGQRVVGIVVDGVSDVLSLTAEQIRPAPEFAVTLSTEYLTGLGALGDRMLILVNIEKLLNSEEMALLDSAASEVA

Molecule: CheA (from UniProt P07363)
Kd (CheW): 17 µM

Molecule: B1
stoichiometry N [1]: 2
stoichiometry N [2]: 2

Molecule: B2
binding result [3]: binds

Molecule: B3
stoichiometry N [4]: 2

Molecule: B4
Kd (ETR1-D659A): 3.6 µM
Kd (ETR1-D659E): 16.3 µM

Molecule: B5
Kd (ETR1-D659A): 15.4 µM
Kd (ETR1-D659E): 2.6 µM

Molecule: B6
stoichiometry N [5]: 2

Molecule: B7
stoichiometry N [6]: 2
